Experimental data taken from patent US8147817B2, “IL-33 in the treatment and diagnosis of diseases and disorders” (The Brigham and Women's Hospital, Inc., priority 2006, dated 2012).
Entries after “also recorded” stand apart in the source; their conditions may differ.

Tests used:
NF-κB [1] = assay: NF-κB nuclear binding activity by EMSA in cardiomyocytes; type: cell-based, rat
Description: (§1) Electromobility shift assays were performed as described previously (8). Cells were lysed for 10 minutes on ice in a solution containing 10 mM HEPES (pH 7.6), 15 mM KCl, 2 mM MgCl2, 0.1 mM ethylenediamine tetraacetic acid (EDTA), 1 mM dithiothreitol (DTT), 0.5 mM phenylmethylsulphonylfluoride (PMSF), 10 μg/mL leupeptin and 0.2% Nonident P-40. Dishes were gently scraped, and nuclei were collected by centrifugation at 800 g for 30 seconds and then suspended in a solution of 50 mM HEPES, 400 mM KCl, 0.1 mM EDTA, 10% glycerol, 1 mM DTT, 0.5 mM PMSF and 10 μg/mL leupeptin. The mixture was incubated on ice for 30 minutes, and the supernatant was collected after centrifugation for 15 minutes at 400 g. Binding reactions were performed with 5 or 10 μg of nuclear protein in 10 mM Tris, 1 mM DTT, 1 mM EDTA, 5% glycerol, 0.1% Triton X-100, 1 mg poly(dIdC), 5 μg bovine serum albumin (BSA) and approximately 10,000 cpm of −32P-labeled oligonucleotide. The binding reactions for AP-1 activity also contained 5 mM MgCl2. Control reaction mixtures contained a 100-fold excess of unlabeled oligonucleotide and were incubated with nuclear extracts of IL-1β-treated cells. DNA complexes were separated on a 4% nondenaturing polyacrylamide gel in Tris-HCl (6.7 mM), EDTA (1 mM) and ammonium acetate (3.3 mM). The oligonucleotides contained the NF-B binding site (sequence: 5′-AGTTGAGGGGACTTTCCCAGGC-3′ (SEQ ID NO: 15)) and were labeled by standard procedures.
EMSAs were performed as described previously (47). Cells were lysed for 10 minutes on ice in 10 mM HEPES (pH 7.6), 15 mM KCl, 2 mM MgCl2, 0.1 mM EDTA, 1 mM DTT, 0.5 mM PMSF, 10 μg/mL leupeptin, and 0.2% Nonident P-40. Dishes were gently scraped, and nuclei were collected by centrifugation at 800 g for 30 seconds and then suspended in a solution of 50 mM HEPES, 400 mM KCl, 0.1 mM EDTA, 10% glycerol, 1 mM DTT, 0.5 mM PMSF, and 10 μg/mL leupeptin. The mixture was incubated on ice for 30 minutes, and the supernatant was collected after centrifugation for 15 minutes at 400 g. Binding reactions were performed with 5 or 10 μg of nuclear protein in 10 mM Tris, 1 mM DTT, 1 mM EDTA, 5% glycerol, 0.1% Triton X-100, 1 mg poly(dIdC), […] BSA, and 10,000 cpm of [^32P]-labeled oligonucleotide. The specific NF-κB consensus oligonucleotides were 5′-[…]-3′ (SEQ ID NO: 15) and 5′-[…]-3′ (SEQ ID NO: 18) (Promega). Positive and negative control mixtures as well as specific competition mixtures were made as recommended by the manufacturer's instructions, using binding buffer with positive samples, labeled NF-κB oligonucleotides and 10-fold excess of cold NF-κB consensus oligonucleotides for specific competition. DNA complexes were separated on a 6% nondenaturing polyacrylamide gel in Tris-HCl (6.7 mM), EDTA (1 mM), and ammonium acetate (3.3 mM).

IκBα = IκBα phosphorylation by Western analysis in cardiomyocytes; type: cell-based, rat
Description: Western analyses were performed as described previously (45). Membranes were incubated with primary antibodies overnight (anti-p44/42MAPK diluted 1:500; phospho-p44/42MAPK (Thr202/Tyr204) 1:1000; phospho-JNK (Thr183/Tyr185) 1:500; p38MAPK 1:500; phospho-p38MAPK (Thr180/Tyr182) 1:500; phospho-Akt (Ser473) 1:1000 and phospho-IκBα 1:1000, all from Cell Signaling, anti-mouse ST2L, from R&D 1:1000 and anti-IL-33 as described above, 1:500) at 4° C., detected with horseradish peroxidase-conjugated antibodies and enhanced chemiluminescence.

cardiac fibroblasts = assay: Cardiac fibroblast proliferation; type: cell-based, rat
Description: A 3-(4,5-dimethylthiazol-2-yl)-5-(3-carboxymethoxyphenyl)-2-(4-sulfophenyl)-2H-tetrazolium salt (MTS) assay was performed with CellTiter 96 AQueous One Solution Cell Proliferation Assay kit (Promega, Madison, Wis.). Actual cell number in each group was also counted manually after exclusion of dead cells by Trypan blue staining. Cell cycle of cardiac fibroblasts was analyzed as previously described (9). Briefly, cardiac fibroblasts were seeded at a density of 1.5×10^5 cells per 60 mm dishes and serum-starved for 24 hrs. After treatment, cells were trypsinized, fixed in 80% ethanol at −20° C. and labeled with 50 ug/ml propidium iodide (Sigma) with 50 ug/ml RNaseA (Sigma). Then propidium iodide fluorescence was analyzed by flow cytometer (CYTOMICS FC500, Beckman Coulter, Fullerton, Calif.). Total population was initially gated to remove cell debris, and 1×10^4 cells were assessed for each DNA histogram using CXP software (Beckman Coulter).

[2] = test system: lungs of Sham-operated mice; assay: Lung histology of Sham-operated mice after IL-33 treatment; type: in vivo, mouse; settings: 2 μg/day rat IL-33 for 7 days
Description: Targeted ST2−/− mice and their WT littermates were employed for the experiments. […] All operative procedures were performed by a single operator with over 20 years rodent cardiac surgery experience who was blinded to genotype and the randomized treatment assignment. Following the procedure, each mouse received daily i.p. injection of recombinant rat IL-33 (2 μg) or vehicle from the day after TAC operation until the day of harvest.

[3] = test system: rat neonatal cardiomyocytes; assay: Cardiomyocyte apoptosis assays (H2O2 stimulus); type: cell-based
Description: For cardiomyocyte apoptosis assays, cardiomyocytes were plated overnight, cultured serum-free for 24 hours, and then subjected to 0.1 mM H2O2 for another 24 hours with or without treatment with purified rat mature IL-33 protein. TUNEL staining (FIG. 19) was performed using a TUNEL staining kit (Roche Diagnostics Corp., Indianapolis, Ind.). For DNA fragmentation experiments (FIGS. 19 and 20), cells were trypsinized, fixed with ethanol, incubated in RNase, stained with propidium iodide, and then subjected to flow cytometry (Cytomics FC 500; Beckman Coulter).
Membranes (PVDF, PerkinElmer) were incubated with primary antibodies overnight (anti-cleaved caspase-3, 1:1000; from Cell Signaling Technology) at 4° C., detected with horseradish peroxidase-conjugated antibodies (Bio-Rad) and enhanced chemiluminescence (FIG. 20).

NF-κB [4] = assay: NF-κB nuclear binding activity by EMSA in cardiac fibroblasts; type: cell-based, rat; settings: angiotensin-II 1 μM, phenylephrine 50 μM, IL-33 10 ng/ml
Description: as §1
EMSAs were performed as described previously (47). Cells were lysed for 10 minutes on ice in 10 mM HEPES (pH 7.6), 15 mM KCl, 2 mM MgCl2, 0.1 mM EDTA, 1 mM DTT, 0.5 mM PMSF, 10 μg/mL leupeptin, and 0.2% Nonident P-40. Dishes were gently scraped, and nuclei were collected by centrifugation at 800 g for 30 seconds and then suspended in a solution of 50 mM HEPES, 400 mM KCl, 0.1 mM EDTA, 10% glycerol, 1 mM DTT, 0.5 mM PMSF, and 10 μg/mL leupeptin. The mixture was incubated on ice for 30 minutes, and the supernatant was collected after centrifugation for 15 minutes at 400 g. […]

[5] = PDGF-BB (10 ng/ml) or TNF-α (10 ng/ml), IL-33 10 ng/ml

B1: IL-33: recombinant mature rat IL-33, starting with amino acid 109 of the full-length protein, N-terminal His tag (GenBank BC081993) (protein)
chain: SIQGTSLLTESCALSTYNDQSVSFVLENGCYVINVEDCGKNQEKDKVLLRYYESSFPAQSGDGVDGKKLMVNMSPIKDTDIWLNANDKDYSVELQKGDVSPPDQAFFVLHKKSSDFVSFECKNLPGTYIGVKDNQLALVEENDESCNNIMFKLSKM
modifications: left off: small tags and cut ends
In the case of B1, the “reduction of NF-κB nuclear binding activity induced by PDGF-BB or TNF-α” value (NF-κB [1]; [5]) is reported as “not observed; also recorded: did not block”, the “NF-κB activation by agent alone” value (NF-κB [1]; cardiomyocytes, angiotensin-II 1 μM, phenylephrine 50 μM, IL-33 10 ng/ml) is reported as “independently activated NF-κB in both cell types; also recorded: mildly activated NF-κB” and the “angiotensin-II- or phenylephrine-induced NF-κB activation” value (NF-κB [1]; cardiomyocytes, co-treatment with IL-33 10 ng/ml) is reported as “markedly attenuated”. For the same molecule, the “reduction of IκBα phosphorylation induced by PDGF-BB or TNF-α” value (IκBα; [5]) was “not observed; also recorded: did not block IκBα phosphorylation”, the “IκBα phosphorylation by agent alone” value (IκBα; cardiomyocytes) was “induced IκBα phosphorylation in both cell types” and the “IκB phosphorylation under hypertrophic stimulus” value (IκBα; cardiomyocytes, co-treatment with IL-33) was “reduced IκB phosphorylation in cardiomyocytes”. The “cardiac fibroblast proliferation, IL-33 alone” value (cardiac fibroblasts) was “can induce cardiac fibroblast proliferation”, the “cardiac fibroblast proliferation induced by angiotensin II” value (cardiac fibroblasts; co-treatment with IL-33) was “antagonizes cardiac fibroblast proliferation induced by angiotensin II; also recorded: antagonizes the proliferation induced by angiotensin II” and the “inflammatory changes in lung” value ([2]; ST2−/− mice) was “None of these changes were observed; also recorded: These changes were not observed”. For the same molecule, the “epithelial lining of the airways” value ([2]; WT mice) was “remained unchanged”, the “infiltration of inflammatory cells in lung” value ([2]; WT mice) was “Mild infiltration of inflammatory cells within vessel walls and adjacent to the vessels; also recorded: mild focal infiltrations of inflammatory cells” and the “apoptosis (TUNEL staining, flow cytometry and caspase-3 evaluation together)” value [3] was “can prevent apoptosis in cardiac myocytes”. The “apoptosis by TUNEL staining” value [3] was “can prevent apoptosis in cardiac myocytes; also recorded: can reduce apoptosis in cardiac myocytes”, the “apoptosis by caspase-3 activation” value [3] was “can prevent apoptosis in cardiac myocytes” and the “apoptosis by flow cytometry after propidium iodide staining” value [3] was “can prevent apoptosis in cardiac myocytes”. For the same molecule, the “NF-κB activation by agent alone” value (NF-κB [4]) was “independently activated NF-κB in both cell types”.
